Data reported in article PMC5816147.

Target: GLP1 receptor (human) (UniProt P43220)
Sequence (P43220 24-463): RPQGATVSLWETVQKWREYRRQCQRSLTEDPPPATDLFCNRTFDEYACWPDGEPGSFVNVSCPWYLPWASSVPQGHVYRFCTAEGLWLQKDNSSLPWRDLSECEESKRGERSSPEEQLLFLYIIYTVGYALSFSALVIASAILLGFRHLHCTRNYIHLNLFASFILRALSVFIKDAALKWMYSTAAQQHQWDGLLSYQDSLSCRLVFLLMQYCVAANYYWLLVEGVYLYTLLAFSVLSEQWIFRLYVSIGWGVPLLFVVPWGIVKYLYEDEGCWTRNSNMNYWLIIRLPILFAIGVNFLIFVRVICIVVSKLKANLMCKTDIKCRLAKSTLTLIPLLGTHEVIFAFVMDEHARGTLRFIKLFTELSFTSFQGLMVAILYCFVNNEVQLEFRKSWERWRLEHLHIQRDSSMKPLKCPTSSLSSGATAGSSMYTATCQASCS

(D)-GLP1 peptide (designed binder)
EC50 of CRE-luciferase expression in HEK293 cells stably expressing GLP1R: 2200 nM
